Reference: US9150634B2, “Epitopes of the human PDGF receptor able to bind human auto-antibodies, antibodies and uses thereof” (priority 2010, dated 2015)

B1: Vlambda16F4: recombinant human monoclonal IgG1, VH PAM paired with Vlambda16F4 VL (SEQ ID No. 7) (antibody, V domains shown)
VH: GLVKPLETLSLTCSVSGGSVSDGSYFWNWIRQPPGKGLEWIGYAYSRGTTNYSPSLKGRITISVDKSKNQISLKLTSVTPADTAVYYCARDSFEIWGQGTMVTV
VL: QSALTQPASVSGSPGQSITISCTGTSSDVGGYNYVSWYQHHPGKAPKLMIYEVSHRPSGVSNRFSGSKSGNTASLTISGLQAEDEADYYCSSYTSSSHVVFGGGTKLTVL
B2: Vk13B8: recombinant human monoclonal IgG1, VH PAM (SEQ ID No. 3) paired with Vk13B8 VL (SEQ ID No. 4); non-agonistic anti-PDGFR alpha (antibody, listed as Homo sapiens, V domains shown)
VH: GLVKPLETLSLTCSVSGGSVSDGSYFWNWIRQPPGKGLEWIGYAYSRGTTNYSPSLKGRITISVDKSKNQISLKLTSVTPADTAVYYCARDSFEIWGQGTMVTV
VL: DIQMTQSPSSLSASVGDRVTITCRASQGISNYLAWFQQKPGKAPKSLIYAASSLQSGVPSKFSGSGSGTDFTLTISSLQPEDFATYYCQQYNSFPYTFGQGTKLEIK

How the values were obtained:
[1] = system: normal human fibroblasts; experiment: type I collagen gene transcription in normal human fibroblasts (real-time PCR); format: cell-based; details: time course
Source text: (§1) FIG. 5 Characterization of recombinant human monoclonal auto-antibodies (rHumaab). IgG were affinity-purified from serum-free supernatants of CHO cells stably transfected with each of the four rHumaab constructs and used (10 micrograms/ml) in four independent assays. Each result is representative of three experiments performed under the same conditions. (a) Vk13B8, Vk16F4 and Vlambda16F4, but not Vlambda13B8 rHumaab, immunoprecipitated PDGFR alpha from normal human fibroblast extracts. A mouse monoclonal anti-PDGFR alpha antibody was used as positive control. Immunoprecipitated PDGFR alpha was visualized by immunoblotting with rabbit anti-PDGFR alpha antibody-HRP. (b-c) Vk16F4 and Vlambda16F4, but not Vk13B8 and Vlambda13B8 rHumaab, induced (b) ROS production and (c) increased ERK phosphorylation (p-ERK) in normal human fibroblasts after 15 minutes incubation. […] Intracellular ROS production was measured by DCFH-DA fluorescence. […] Type I A1 and A2 collagen gene expression was measured by quantitative real-time PCR in RNA extracted from fibroblasts at baseline and after stimulation with the indicated reagents. […] Mouse collagen gene expression was measured by quantitative real-time PCR in RNA extracted from F alpha and F−/− fibroblasts at baseline and after 1 hour stimulation with Vk16F4 rHumaab or human PDGF-BB. […]

[2] = molecular target: T1, PDGFR alpha (Homo sapiens, UniProt P16234); experiment: optical biosensor binding to immobilized His-tagged PDGFR alpha; parameters: cDNA encoding aminoacids 1-834 of human PDGFR alpha; made in house
Protocol: A detailed characterization of rHumaab interaction with human PDGFR alpha was performed on an optical biosensor, using as a molecular bait a homemade truncated conformer of this receptor containing the complete extracellular and transmembrane regions joined to a poly-histidine tail (HIS tag) replacing part of the intracellular domain, and serving both as an anchor to the biosensor surface and as a spacer. Preservation of proper folding of the immobilized receptor into a naïve-like conformation was verified by monitoring the interaction with its natural binding partner (PDGF-BB) and with two mouse monoclonal antibodies specific for conformational PDGFR alpha epitopes (FIG. 6a). Using this approach, both kinetics and equilibrium parameters of the interaction between PDGF-BB, each rHumaab and PDGFR alpha were determined. […] Additionally, the analysis of association and dissociation rate constants for soluble ligands binding to PDGFR alpha, further defined the mechanistic properties of the macromolecular recognition process. […]
cDNA encoding aminoacids 1-834 of human PDGFR alpha was inserted in the pcDNA V5 HIS A vector (Invitrogen), in order to fuse the COOH— terminal of the protein with a 6× histidine tag. […] Presence of a single His-tagged PDGFR alpha product in eluted fractions was evaluated by immunoblotting with specific anti-PDGFR alpha (R&D Biosystems) and anti-histidine (Sigma-Aldrich) monoclonal antibodies. […]
[…] For binding assays, monophasic time courses were always reported upon addition of soluble rHumaab (the validity of the monophasic model in fitting each time course was assessed according to a standard F-test procedure, with the biphasic model being statistically nonsignificant at 95% confidence) (Bevington P R and Robinson D K. McGraw-Hill Book Company, New York. 1992).
Target sequence in this assay (P16234 24-834): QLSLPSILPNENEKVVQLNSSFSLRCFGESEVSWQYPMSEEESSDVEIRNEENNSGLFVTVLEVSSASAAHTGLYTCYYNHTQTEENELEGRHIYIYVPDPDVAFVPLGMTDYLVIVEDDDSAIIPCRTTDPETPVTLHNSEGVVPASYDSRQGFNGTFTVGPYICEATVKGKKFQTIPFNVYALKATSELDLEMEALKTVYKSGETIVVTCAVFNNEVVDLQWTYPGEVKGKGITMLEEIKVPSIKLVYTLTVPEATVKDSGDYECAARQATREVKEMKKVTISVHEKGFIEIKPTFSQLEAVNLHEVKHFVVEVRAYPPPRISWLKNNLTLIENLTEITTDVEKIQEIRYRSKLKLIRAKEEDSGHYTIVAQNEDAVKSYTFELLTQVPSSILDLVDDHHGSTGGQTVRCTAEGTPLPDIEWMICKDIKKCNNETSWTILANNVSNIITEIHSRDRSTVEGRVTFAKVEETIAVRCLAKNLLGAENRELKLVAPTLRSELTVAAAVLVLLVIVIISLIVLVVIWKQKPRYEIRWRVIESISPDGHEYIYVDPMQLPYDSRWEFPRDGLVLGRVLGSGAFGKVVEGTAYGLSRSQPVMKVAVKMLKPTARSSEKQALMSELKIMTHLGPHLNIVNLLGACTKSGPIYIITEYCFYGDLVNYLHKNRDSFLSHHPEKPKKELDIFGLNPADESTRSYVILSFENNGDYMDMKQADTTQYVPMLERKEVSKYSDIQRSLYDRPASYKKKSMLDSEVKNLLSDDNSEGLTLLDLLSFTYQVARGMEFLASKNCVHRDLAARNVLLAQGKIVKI

[3] = system: normal human fibroblasts; experiment: ERK phosphorylation (p-ERK immunoblot) in normal human fibroblasts; format: cell-based; details: 10 micrograms/ml, 15 minutes incubation
Source text: as §1

[4] = molecular target: T1, PDGFR alpha; experiment: immunoprecipitation and immunoblotting of PDGFR alpha from human fibroblast extracts; format: binding; parameters: 100 micrograms of total protein from human fibroblast extract; endogenous in cells; host or cells: normal human (skin) fibroblasts, total cell extract; details: normal human fibroblast extracts; 10 micrograms/ml
Protocol: Immunoprecipitating antibodies were individually incubated for 4 hours at 4° C. with an aliquot of 100 micrograms of total protein from human fibroblast extract. The reaction mixture was adjusted to a final volume of 500 microliters with assay buffer (PBS, 1% Nonidet P-40, 0.5% sodium deoxycholate, 1 mM PMSF). Rabbit anti-PDGFR alpha antibody and rabbit IgG (Santa Cruz), IgG purified from EBV-transformed B cell culture supernatants and rHumaab were used at 10 micrograms/ml, total IgG purified from serum of SSc patients and healthy subjects at 200 micrograms/ml. Then, 20 microliters agarose-Protein A/G (Santa Cruz) were added to the antibody-cell extract mixture and incubated overnight under rotation at 4° C. After centrifugation and extensive washing, immunoprecipitates were suspended in 20 microliters of loading buffer (150 mM Tris-HCl, pH 6.8/6% SDS/0.3% bromophenol blue/30% glycerol) and heated to 100° C. for 10 minutes prior to immunoblotting with a commercial rabbit anti-PDGFR alpha antibody (Santa Cruz).
Target sequence in this assay (P16234 24-1089): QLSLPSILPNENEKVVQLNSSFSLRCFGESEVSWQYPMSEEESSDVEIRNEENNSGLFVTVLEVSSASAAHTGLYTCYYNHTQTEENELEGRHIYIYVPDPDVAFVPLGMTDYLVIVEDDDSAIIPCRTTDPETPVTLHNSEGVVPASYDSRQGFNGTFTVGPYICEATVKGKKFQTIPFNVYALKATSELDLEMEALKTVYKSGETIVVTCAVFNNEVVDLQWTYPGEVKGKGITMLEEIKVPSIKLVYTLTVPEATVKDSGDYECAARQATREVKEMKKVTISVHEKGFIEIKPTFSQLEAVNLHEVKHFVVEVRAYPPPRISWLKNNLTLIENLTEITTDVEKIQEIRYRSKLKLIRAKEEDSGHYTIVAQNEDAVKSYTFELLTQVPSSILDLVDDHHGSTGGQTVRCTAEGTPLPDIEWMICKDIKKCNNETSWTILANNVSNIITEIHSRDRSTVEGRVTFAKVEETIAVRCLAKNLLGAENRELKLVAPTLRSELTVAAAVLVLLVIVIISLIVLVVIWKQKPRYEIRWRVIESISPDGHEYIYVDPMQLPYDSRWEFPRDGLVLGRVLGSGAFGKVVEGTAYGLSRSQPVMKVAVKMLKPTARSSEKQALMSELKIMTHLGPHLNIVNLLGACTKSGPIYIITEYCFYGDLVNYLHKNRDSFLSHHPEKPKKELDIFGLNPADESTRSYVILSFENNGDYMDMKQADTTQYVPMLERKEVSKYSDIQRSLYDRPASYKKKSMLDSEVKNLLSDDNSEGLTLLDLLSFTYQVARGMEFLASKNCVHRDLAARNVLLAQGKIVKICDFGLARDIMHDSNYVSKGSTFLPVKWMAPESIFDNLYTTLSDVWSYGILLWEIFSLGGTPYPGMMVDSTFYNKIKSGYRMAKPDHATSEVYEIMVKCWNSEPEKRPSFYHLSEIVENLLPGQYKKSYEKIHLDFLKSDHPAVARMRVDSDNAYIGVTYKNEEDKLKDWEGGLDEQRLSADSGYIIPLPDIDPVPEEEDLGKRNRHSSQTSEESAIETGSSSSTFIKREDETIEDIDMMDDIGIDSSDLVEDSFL

[5] = system: normal human fibroblasts; experiment: ROS production in normal human fibroblasts (DCFH-DA fluorescence); format: cell-based; details: 10 micrograms/ml, 15 minutes incubation
Source text: as §1

[6] = molecular target: T1, PDGFR alpha; experiment: competitive binding on optical biosensor; parameters: cDNA encoding aminoacids 1-834 of human PDGFR alpha; made in house; details: immobilized His-tagged PDGFR alpha saturated with molar excess of PDGF-BB
Protocol: To draw a map of the PDGFR alpha epitopes recognized by the rHumaab, competitive binding experiments were performed on the optical biosensor platform, where the surface of immobilized HIS-tagged PDGFR alpha was saturated with PDGF-BB prior to the addition of each rHumaab.
Binding assays were performed on a IAsys plus biosensor. The carboxylate surface was equilibrated with PBS buffer, and activated by addition of an equimolar mixture of N-hydroxysuccinimide and N-ethyl-N-(dimethylaminopropyl) carbodiimide hydrochloride following the standard procedure (Davies, R J et al. Academic Press: San Diego, 1994).
Next, His-tagged PDGFR alpha (200 micrograms/mL) was incubated over the surface for 20 min, and free carboxylic sites on the sensor surface were deactivated by injection of 1M ethanolamine, pH 8.5. Finally, the surface was re-equilibrated with PBS. rHumaab and PDGF-BB were added at different concentrations, and association kinetics were followed up to equilibrium, whereas dissociation steps and surface regeneration were performed by addition of fresh buffer, each time assessing the baseline recovery prior to any new addition of ligand. Kinetic and equilibrium parameters were derived from global fit of raw data both to mono- and bi-exponential models (Cuccioloni M et al. J Lipid Res 2011; 52 (5): 897-907).
Target sequence in this assay (P16234 24-834): as the sequence (P16234 24-834) above

Molecule	duration of collagen gene stimulation [1]	kass (association rate constant) [2] [M⁻¹ s⁻¹]	ERK phosphorylation (p-ERK) [3]	immunoprecipitation of PDGFR alpha [4]	ROS production [5]	kdiss (dissociation rate constant) [2] [s⁻¹]	binding to PDGFR alpha pre-saturated with PDGF-BB [6]
PDGF-BB: human PDGF-BB, natural binding partner (physiological ligand) of PDGFR alpha [reference compound]	up to 6 hours	3e+07					
B1			increased	specifically bound	induced	0.003	
B2				specifically bound		0.035	bound
